Assay results from article PMC5070119.
One block for each substance: values may come before it.

Assays:
[1] = biological target: cytosolic purine 5'-nucleotidase (cN-II), C-terminally truncated wild type (human) (UniProt P49902); assay: SEC; Superdex 200 10/300 GL, 50 mM sodium phosphate pH 7.4, 100 mM NaCl, 2 mM TCEP; 200 ul of 0.5 mg/ml protein; calibrated with high molecular weight standards
[2] = biological target: cytosolic purine 5'-nucleotidase (cN-II), C-terminally truncated wild type (human) (UniProt P49902); assay: SAXS; truncated proteins 0.25 to 2 mg/ml in 50 mM sodium phosphate pH 7.4, 100 mM NaCl, 2 mM TCEP, 5 % glycerol; BM29 beamline ESRF; Guinier approximation, P(r), Porod volume
[3] = biological target: cytosolic purine 5'-nucleotidase (cN-II) R367Q, C-terminally truncated (human) (UniProt P49902); assay: SEC; Superdex 200 10/300 GL, 50 mM sodium phosphate pH 7.4, 100 mM NaCl, 2 mM TCEP; 200 ul of 0.5 mg/ml protein; calibrated with high molecular weight standards
[4] = biological target: cytosolic purine 5'-nucleotidase (cN-II) R367Q, C-terminally truncated (human) (UniProt P49902); assay: SAXS; truncated proteins 0.25 to 2 mg/ml in 50 mM sodium phosphate pH 7.4, 100 mM NaCl, 2 mM TCEP, 5 % glycerol; BM29 beamline ESRF; Guinier approximation, P(r), Porod volume
[5] = biological target: cytosolic purine 5'-nucleotidase (cN-II) R238W, C-terminally truncated (human) (UniProt P49902); assay: SEC; Superdex 200 10/300 GL, 50 mM sodium phosphate pH 7.4, 100 mM NaCl, 2 mM TCEP; 200 ul of 0.5 mg/ml protein; calibrated with high molecular weight standards
[6] = biological target: cytosolic purine 5'-nucleotidase (cN-II) R238W, C-terminally truncated (human) (UniProt P49902); assay: SAXS; truncated proteins 0.25 to 2 mg/ml in 50 mM sodium phosphate pH 7.4, 100 mM NaCl, 2 mM TCEP, 5 % glycerol; BM29 beamline ESRF; Guinier approximation, P(r), Porod volume
[7] = biological target: cytosolic purine 5'-nucleotidase (cN-II) L375F, C-terminally truncated (human) (UniProt P49902); assay: SEC; Superdex 200 10/300 GL, 50 mM sodium phosphate pH 7.4, 100 mM NaCl, 2 mM TCEP; 200 ul of 0.5 mg/ml protein; calibrated with high molecular weight standards
[8] = biological target: cytosolic purine 5'-nucleotidase (cN-II) L375F, C-terminally truncated (human) (UniProt P49902); assay: SAXS; truncated proteins 0.25 to 2 mg/ml in 50 mM sodium phosphate pH 7.4, 100 mM NaCl, 2 mM TCEP, 5 % glycerol; BM29 beamline ESRF; Guinier approximation, P(r), Porod volume

stoichiometry N [1]: 4 | stoichiometry N [2]: 4
Substance: cytosolic purine 5'-nucleotidase (cN-II), C-terminally truncated wild type (from UniProt P49902 1-536) (enzyme)

stoichiometry N [3]: 4 | stoichiometry N [4]: 4
Substance: cytosolic purine 5'-nucleotidase (cN-II) R367Q, C-terminally truncated (from UniProt P49902 1-536) (enzyme)

stoichiometry N [5]: 4 | stoichiometry N [6]: 4
Substance: cytosolic purine 5'-nucleotidase (cN-II) R238W, C-terminally truncated (from UniProt P49902 1-536) (enzyme)

stoichiometry N [7]: 4 | stoichiometry N [8]: 4
Substance: cytosolic purine 5'-nucleotidase (cN-II) L375F, C-terminally truncated (from UniProt P49902 1-536) (enzyme)
